Source: patent US12214014B2, “Methods for scar reduction by converting scar fibroblasts into adipocytes with hair follicle-derived signals” (The Trustees of the University of Pennsylvania, priority 2017, dated 2025)
Entries after “also recorded” stand apart in the source; their conditions may differ.

B1: BMP4: human recombinant bone morphogenetic protein 4 (R&D Systems) (protein, UniProt P12644 293-408, looked up)
Bone morphogenetic protein 4: SPKHHSQRARKKNKNCRRHSLYVDFSDVGWNDWIVAPPGYQAFYCHGDCPFPLADHLNSTNHAIVQTLVNSVNSSIPKACCVPTELSAISMLYLDEYDKVVLKNYQEMVVEGCGCR

Legend:
Zfp423 = Zfp423 reporter (lacZ) activity in wounds of Zfp423-lacZ mice; format: in vivo, mouse; conditions: 2 mg/kg during wound healing, day 21
Description: FIG. 25: BMP signaling is necessary for Zfp423 reporter activation in wounds. […] Asterisk marks lacZ-positive dermal papillae of new hair follicles. Size bars: 100 μm.
(§1) All animal experiments were carried out in accordance to with the guidelines of the IACUC of the University of Pennsylvania and the University of California, Irvine. Full thickness 1.5×1.5 cm (2.25 cm^2) excisional wounds were inflicted on the backs of three to eight week-old mice as described in M. Ito et al., Nature 447:316 (2007).

[1] = tested on: regenerated adipocytes in wounds; assay: Adipocyte regeneration in large excisional skin wounds (adipocyte/hair follicle index, Oil Red O); format: in vivo, mouse; conditions: for Adipocyte/hair index (new adipocyte/follicle ratio): WT mice treated during wound healing, post-wounding Day 28; for regeneration of new adipocytes in hair-bearing wounds: treatment during wound healing (2 mg/kg), hair follicles regenerate normally
Description: as §1
Whole mount wounds were stained for Oil Red O and the number of regenerated hair follicles was counted from the skin surface, where each new hair is clearly visible. The number of new adipocytes was counted from the underside, where each adipocyte is clearly visible due to their very large size and prominent marking by Oil Red O dye. For each experiment, adipose tissue regeneration was quantified as the ratio of all new adipocytes/all new hair follicles (aka adipocyte/hair follicle index). Some wound samples (FIG. 2B) were stained for lacZ and photographed, then additionally stained for Oil Red O and photographed again. Adipocytes were then micro-dissected and photographed under stereomicroscope.

human keloid scar cells = assay: Primary human adipogenic cell culture, keloid scar cells; format: cell-based; conditions: 20 ng/ml hBMP4 for 48 hours, then adipogenic cocktail; for adipogenic conversion of keloid scar cells (Oil Red O positive adipocytes): n=3
Description: (§2) All human experiments were carried out in accordance with the guidelines of the IRB of the University of California, Irvine, Children's Hospital Los Angeles and Kyungpook National University. Keloid fibroblasts were isolated as described in Y. S. Lee et al., Wound repair and regeneration: official publication of the Wound Healing Society [and] the European Tissue Repair Society 24:302 (2016). Human hypertrophic scar myofibroblasts were derived from clinical specimen biopsies and expanded in vitro as described in M. Vangipuram et al., Journal of visualized experiments: JoVE, e3779 (2013).
Primary human scar cells were cultured in DMEM/F12 media (Gibco) supplemented with 10% FBS (Fisher Scientific). Upon confluency, cells were switched to serum free DMEM/F12 media and treated with 20 ng/ml recombinant hBMP4 protein (R&D Systems) for 48 hours before differentiation. For the hair follicle co-culture, cells were grown in 12-well trans-well plates. Once near confluency, medium was changed to William's E hair follicle organ culture medium, and 40 microdissected human scalp anagen hair follicles were co-cultured on top of the membrane insert in each well for 5 days. Control cells were cultured in William's E medium without hair follicles. In all cases, adipogenic differentiation was induced by adding adipogenic cocktail: DMEM/F12 media supplemented with 1% ITS premix (insulin-transferrin-selenium; BD Biosciences), 0.5 mM isobutylmethylxanthine (Sigma), 0.1 μM cortisol (Sigma), 1 μM dexamethasome (Sigma), 0.2 nM triiodothyronine (Sigma), and 1 μM rosiglitazone (Cayman Chemical). After 4 days of induction, cells were changed to maintenance media: DMEM/F12 media supplemented with 1% ITS premix (BD Biosciences), 0.1 μM cortisol (Sigma), and 0.2 nM triiodothyronine (Sigma). For the hair follicle co-culture, cells were maintained in the induction media for 7 days. Lipid droplets were visualized after 7 days and cells were harvested for RNA isolation on day 10.
(§3) Total RNA was isolated using Trizol reagent (Thermo) or RNEasy Micro-Kit (Qiagen) as per manufacturer's protocol with minor modifications. Total RNA was reverse-transcribed and cDNA was amplified using PCR primers described in J. Ishibashi et al., Mol Cell Biol 32:2289 (2012). See Tables 3 and 4 for the sequences of primers used.

[2] = tested on: mouse dermal cells isolated from day 15 wounds; assay: Primary mouse adipogenic cell culture; format: cell-based; conditions: 6 ng/ml hBMP4 or 25 ng/ml hBMP2 with differentiation media
Description: Primary scar cells were isolated from day 15 wounds as described in D. Gay et al., Nature medicine 19:916 (2013) with minor modifications. Single cell fractions were created and cultured to confluence in high-glucose to DMEM (Gibco) supplemented with 10% FBS (Atlanta Biologicals) and […] Pen/Strep cocktail (Gibco). […] After three days, cells differentiation media was switched to adipocyte maintenance media (Cell Solutions). Cells were cultured in a water-jacketed incubator at 37° C. with 5% CO2 output
as §3

[3] = tested on: human hypertrophic scar fibroblasts; assay: Primary human adipogenic cell culture, hypertrophic scar fibroblasts; format: cell-based; conditions: n=3
Description: as §2
Primary human scar cells were cultured in DMEM/F12 media (Gibco) supplemented with 10% FBS (Fisher Scientific). Upon confluency, cells were switched to serum free DMEM/F12 media and treated with 20 ng/ml recombinant hBMP4 protein (R&D Systems) for 48 hours before differentiation. For the hair follicle co-culture, cells were grown in 12-well trans-well plates. Once near confluency, medium was changed to William's E hair follicle organ culture medium, and 40 microdissected human scalp anagen hair follicles were co-cultured on top of the membrane insert in each well for 5 days. Control cells were cultured in William's E medium without hair follicles. […]

[4] = listed as small-molecule inhibitor of SMAD1/5/8 phosphorylation

| Molecule | Zfp423 activity (reporter) in dermal cells surrounding new hair follicles and in blood vessels (Zfp423) | Zfp423 activity (reporter) in dermal cells surrounding new hair follicles and in blood vessels (Zfp423; [4]) | Adipocyte/hair index (new adipocyte/follicle ratio) [1] | Adipocyte/hair index (new adipocyte/follicle ratio) [1, 4] | regeneration of new adipocytes in hair-bearing wounds [1] | regeneration of new adipocytes in hair-bearing wounds [1, 4] | expression of adipogenic genes ZNF423, ADIPOQ, ADIPOSIN, PPARG2, FABP4 (qRT-PCR) (human keloid scar cells) | expression of adipogenic genes ZNF423, ADIPOQ, ADIPOSIN, PPARG2, FABP4 (qRT-PCR) (human keloid scar cells; listed as hBMP4) | adipogenic conversion of keloid scar cells (Oil Red O positive adipocytes) (human keloid scar cells) | adipogenic conversion of keloid scar cells (Oil Red O positive adipocytes) (human keloid scar cells; listed as hBMP4) | activation of adipocyte-specific genes (qRT-PCR) [2] | reprogramming of cultured mouse dermal cells into adipocytes ([2]; without BMP non-adipogenic) | qRT-PCR against select adipogenic genes ([3]; following hBMP4 treatment) | adipogenic potential of hypertrophic scar fibroblasts (Oil Red O) ([3]; hBMP4 for 48 hours prior to differentiation, vs non-hBMP4 control) |
| --- | --- | --- | --- | --- | --- | --- | --- | --- | --- | --- | --- | --- | --- | --- |
| c1ccc2c(-c3cnn4cc(-c5ccc(N6CCNCC6)cc5)cnc34)ccnc2c1 [LDN-193189] | significantly downregulated | downregulated | 0.58 ± 0.35 | 0.58+/−0.35 | near complete loss of regenerated adipocytes | largely prevented new adipocyte regeneration | – | – | – | – | – | – | – | – |
| B1 | – | – | – | – | – | – | expression of adipocyte markers; also recorded: activation of adipocyte-specific genes | upregulation of adipogenic genes | induced their conversion to lipid-laden adipocytes; also recorded: induced their reprogramming into adipocytes | consistently induced adipogenic conversion | activation of adipocyte-specific genes | induced their reprogramming into adipocytes | only ADIPISIN becomes significantly upregulated | does not induce an increase in adipogenic potential |
